molecular target: T1, erythropoietin receptor on intact mouse spleen cells (mouse) (UniProt P14753); experiment: cell-based or functional assay
T1 sequence (looked up): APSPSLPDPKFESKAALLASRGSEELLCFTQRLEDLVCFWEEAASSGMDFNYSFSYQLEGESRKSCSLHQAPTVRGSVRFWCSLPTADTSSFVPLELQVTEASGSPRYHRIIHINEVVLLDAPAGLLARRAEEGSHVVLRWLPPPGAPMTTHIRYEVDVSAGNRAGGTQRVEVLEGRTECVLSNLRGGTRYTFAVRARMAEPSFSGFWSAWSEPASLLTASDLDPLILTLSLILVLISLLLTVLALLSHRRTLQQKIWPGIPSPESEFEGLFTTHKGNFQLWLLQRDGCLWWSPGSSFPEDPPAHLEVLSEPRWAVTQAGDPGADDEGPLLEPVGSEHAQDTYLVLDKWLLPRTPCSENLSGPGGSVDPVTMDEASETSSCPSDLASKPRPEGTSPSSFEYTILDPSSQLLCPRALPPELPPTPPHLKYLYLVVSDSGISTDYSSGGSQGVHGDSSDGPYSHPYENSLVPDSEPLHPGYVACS

Row | SPECIFIC ACTIVITY (Krystal bioassay units per microgram by RIA, percent of wildtype erythropoietin), first set of experiments | SPECIFIC ACTIVITY (Krystal bioassay units per microgram by RIA, percent of wildtype erythropoietin), second set of experiments | reduction in activity below wildtype human recombinant erythropoietin (Krystal bioassay) | Substance
1 | 0% | 0% | 1000 fold | erythropoietin mutant R103D (from UniProt P01588 28-193) (ligand)
2 | 0% | 0% | 1000 fold | erythropoietin mutant R103E (from UniProt P01588 28-193) (ligand)
3 | 10.2% | 25% |  | erythropoietin mutant R103K (from UniProt P01588 28-193) (ligand)
4 | 0% | 0% | 1000 fold | erythropoietin mutant R103Q (from UniProt P01588 28-193) (ligand)

More lines, now with the values behind:

Row | Substance | SPECIFIC ACTIVITY (Krystal bioassay units per microgram by RIA, percent of wildtype erythropoietin), first set of experiments | SPECIFIC ACTIVITY (Krystal bioassay units per microgram by RIA, percent of wildtype erythropoietin), second set of experiments | reduction in activity below wildtype human recombinant erythropoietin (Krystal bioassay)
5 | erythropoietin mutant L102A (from UniProt P01588 28-193) (ligand) | 93.3% |  | 
6 | erythropoietin mutant L108A (from UniProt P01588 28-193) (ligand) | 36.9% |  | 
7 | erythropoietin mutant R103A (from UniProt P01588 28-193) (ligand) | 0% | 0% | 1000 fold
8 | erythropoietin mutant R103H (from UniProt P01588 28-193) (ligand) | 0% |  | 
9 | erythropoietin mutant R103L (from UniProt P01588 28-193) (ligand) | 0% | 0.4% | 
10 | erythropoietin mutant R103N (from UniProt P01588 28-193) (ligand) | 0% | 0% | 1000 fold

Reference: US6489293
